The values below come from patent publication US20200024330A1.

Holding throughout (assay): cell-based or functional assay
The target of assay [1] is HIV-1 Env of isolate REJ04541 (HIV-1).
The target in assay [2] is HIV-1 JR-FL Env E168K (pseudovirus) (HIV-1 JR-FL).
Assay [3] deals with HIV-1 Env of isolate DU422 (HIV-1).
In assay [4] the target is HIV-1 Env of isolate TR0.11 (HIV-1).
Assay [5] concerns the target HIV-1 MGRM-D-018 Env (clade D pseudovirus) (HIV-1).
The target in assay [6] is HIV-1 93IN905 Env (clade C pseudovirus) (HIV-1).
Assay [7] has as its target HIV-1 CMU02 Env (clade AE pseudovirus) (HIV-1).
The target of assay [8] is HIV-1 APV17 Env (clade B pseudovirus) (HIV-1).
Assay [9] deals with HIV-1 MGRM-D-001 Env (clade D pseudovirus) (HIV-1).
In assay [10] the target is HIV-1 MGRM-C-026 Env (clade C pseudovirus) (HIV-1).
Assay [11] deals with HIV-1 MGRM-C-027 Env (clade C pseudovirus) (HIV-1).
For assay [12], the target named is HIV-1 MGRM-C-028 Env (clade C pseudovirus) (HIV-1).
The target of assay [13] is HIV-1 94UG103 Env (clade A pseudovirus) (HIV-1).
The target in assay [14] is HIV-1 92TH021 Env (pseudovirus) (HIV-1).
Assay [15] concerns the target HIV-1 MGRM-AG-005 Env (pseudovirus) (HIV-1).
The target in assay [16] is HIV-1 92UG005 Env (pseudovirus) (HIV-1).
Assay [17] has as its target HIV-1 Env of isolate MGRM-AG-005 (clade AG) (HIV-1).
The target in assay [18] is HIV-1 Env of isolate MGRM-C-027 (clade C) (HIV-1).
Assay [19] deals with HIV-1 Env of isolate JRFL (clade B) (HIV-1).
The target in assay [20] is HIV-1 Env of isolate APV13 (clade B) (HIV-1).
Assay [21] concerns the target HIV-1 envelope glycoprotein (Env) of isolate 92BR020, on pseudovirus (HIV-1).
In assay [22] the target is HIV-1 Env of isolate SF162 (subtype B) (HIV-1) (UniProt P19550).
In assay [23] the target is HIV-1 envelope glycoprotein (Env) of isolate MGRM-Chronic-B-020, on pseudovirus (HIV-1).
The target of assay [24] is HIV-1 Env of isolate MGRM-F1-017 (clade F), on pseudovirus (HIV-1).
For assay [25], the target named is HIV-1 Env of isolate 94 KE 105 (pseudovirus) (HIV-1).
Assay [26] deals with HIV-1 Env of isolate 92UG001 (subtype D), on pseudovirus (HIV-1).
In assay [27] the target is HIV-1 Env of isolate 92RW008 (clade A), on pseudovirus (HIV-1).
Assay [28] addresses HIV-1 Env of isolate 98CN009 (subtype CRF07_BC), on pseudovirus (HIV-1).
Assay [29] has as its target HIV-1 Env of isolate 92WR020 (pseudovirus) (HIV-1).
Assay [30] concerns the target HIV-1 Env of isolate MG RM-A-006 (pseudovirus) (HIV-1).
Assay [31] addresses HIV-1 Env of isolate MGRM-AE-005 (pseudovirus) (HIV-1).
Assay [32] addresses HIV-1 Env of isolate 92UG046 (subtype D), on pseudovirus (HIV-1).
In assay [33] the target is HIV-1 Env of isolate MGRM-AE-006 (pseudovirus) (HIV-1).
The target of assay [34] is HIV-1 Env of isolate MG RM-A-012 (pseudovirus) (HIV-1).
Assay [35] deals with HIV-1 Env of isolate MGRM-D-005 (subtype D), on pseudovirus (HIV-1).

1443_C16 (PG16) (TCN-116) (antibody), sequence (VH): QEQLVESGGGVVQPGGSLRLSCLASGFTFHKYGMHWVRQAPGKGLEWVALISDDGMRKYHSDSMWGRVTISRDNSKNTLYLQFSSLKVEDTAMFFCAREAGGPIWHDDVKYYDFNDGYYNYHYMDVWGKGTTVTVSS
1443_C16 (PG16) (TCN-116) (antibody), sequence (VL): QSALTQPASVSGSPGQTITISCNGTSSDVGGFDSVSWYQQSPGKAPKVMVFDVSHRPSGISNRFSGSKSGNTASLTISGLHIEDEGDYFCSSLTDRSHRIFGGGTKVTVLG

As to 1443_C16 (PG16) (TCN-116) (antibody), the IC50, pseudovirus neutralization (TZM-bl) in assay [1] is < 0.01 µg/mL; in [3], 0.59 µg/mL; in assay [4], 3.61 µg/mL. In assay [2], this substance showed an IC50 (ug/ml), neutralization of 0.006 µg/mL.
Take 4877_D15 (PGT-122) (antibody): the Neutralization by PGT-122, IC50 in assay [5] is 0.0115 µg/mL; in assay [6], 0.0138 µg/mL; in assay [7] it was > 10 µg/mL; in [8], 0.522 µg/mL; in assay [9], 0.867 µg/mL; in [10], 0.0089 µg/mL. For the same substance, the Neutralization by PGT-122, IC50 in [11] worked out at 0.0388 µg/mL; in assay [12], 2.06 µg/mL; in assay [13] it was 1.46 µg/mL. Further, the Neutralization by PGT-122, IC80 in [5] is 0.035 µg/mL; in assay [6], 0.0505 µg/mL; in assay [7], > 10 µg/mL; in assay [8], 1.76 µg/mL; in [9], 4.48 µg/mL; in [10], 0.037 µg/mL. For the same substance, the results for the Neutralization by PGT-122, IC80 in assay [11], in assay [12] and in assay [13] were 0.499 µg/mL, > 10 µg/mL and 6.58 µg/mL, respectively. For the same substance, the Neutralization by PGT-122, IC90 in assay [5] was 0.0674 µg/mL; in assay [6], 0.108 µg/mL; in assay [7] it was > 10 µg/mL; in [8] it was 3.58 µg/mL; in [9], > 10 µg/mL; in assay [10] it was 0.0849 µg/mL. In addition, the Neutralization by PGT-122, IC90 in assay [11], in assay [12] and in assay [13] was > 10 µg/mL throughout. The Neutralization by PGT-122, IC95 in assay [5] was 0.125 µg/mL; in [6], 0.217 µg/mL; in assay [7] it was > 10 µg/mL; in [8], 6.92 µg/mL; in assay [9], > 10 µg/mL; in [10], 0.181 µg/mL. Moreover, the Neutralization by PGT-122, IC95 in assay [11], in assay [12] and in assay [13] was > 10 µg/mL throughout.
For the substance 5141_B17 (PGT-126) (antibody), in [14], the IC50 is 0.115 µg/mL, the IC80 was found to be 1.62 µg/mL, the IC90 came out at 6.91 µg/mL and the IC95 was > 10 µg/mL. In addition, in assay [15], the IC50 amounted to 1.35 µg/mL, the IC80 is > 10 µg/mL, the IC90 is > 10 µg/mL and the IC95 was > 10 µg/mL. In [16], the 50% inhibitory concentration (IC50) was found to be 0.0181 µg/mL, the IC80 was 0.145 µg/mL, the IC90 amounted to 0.553 µg/mL and the IC95 is 2.45 µg/mL.
As for 5147_N06 (PGT-130) (antibody), in assay [17], the neutralization IC50 stood at 0.947 µg/mL, the neutralization IC80 was > 10 µg/mL, the neutralization IC90 was > 10 µg/mL and the neutralization IC95 is > 10 µg/mL. In [18], this substance came in with a neutralization IC50 of 0.0052 µg/mL, a neutralization IC80 of 0.0318 µg/mL, a neutralization IC90 of 0.106 µg/mL and a neutralization IC95 of 0.464 µg/mL. Moreover, in [19], the neutralization IC50 came to 0.0346 µg/mL, the neutralization IC80 was found to be 0.751 µg/mL, the neutralization IC90 turned out to be 5.72 µg/mL and the neutralization IC95 is > 10 µg/mL. In addition, in assay [20], the neutralization IC50 amounted to 0.0345 µg/mL, the neutralization IC80 worked out at 0.573 µg/mL, the neutralization IC90 amounted to 2.88 µg/mL and the neutralization IC95 was > 10 µg/mL.
Consider PGV04 (antibody), for which the IC50, pseudovirus neutralization turned out to be 0.25 µg/mL in assay [21] and 1.26 µg/mL in [23]. The IC50 (µg/mL), pseudovirus neutralization in assay [22] stood at 0.0028 µg/mL. Besides, the IC50 (µg/mL), single-round pseudovirus neutralization in assay [24] was found to be 2.38 µg/mL.
Take VRC01 (antibody): the IC50 (µg/mL), pseudovirus neutralization is 0.499 µg/mL in assay [25]; 0.13 µg/mL in assay [29]; 0.521 µg/mL in assay [30]; 0.029 µg/mL in [31]; 4.65 µg/mL in assay [33]; > 50 µg/mL in assay [34]. Further, the IC50, pseudovirus neutralization in assay [26] is 1.16 µg/mL; in assay [28], 0.346 µg/mL; in assay [32], 12.7 µg/mL; in [35], > 50 µg/mL. The substance also came in with an IC50, single-round pseudovirus neutralization in assay [27] of 0.037 µg/mL.

Usually IC50 stands for the point on the concentration scale where inhibition reaches its midpoint. Lower therefore signals inhibition by little substance. For orientation: IC80 means the concentration needed for an effect of 80%. As a reminder, the IC90 is the point of the concentration-response curve where the effect stands at 90%. High values mean weaker potency, low ones greater potency. By IC95 is commonly meant the concentration at which the effect reaches the 95% level. A higher IC95 goes with a need for much substance.
